Source: IntAct's records for PubMed 31515488

B1: Phosphoserine phosphatase (Homo sapiens), P78330 (parent)
chain: MVSHSELRKLFYSADAVCFDVDSTVIREEGIDELAKICGVEDAVSEMTRRAMGGAVPFKAALTERLALIQPSREQVQRLIAEQPPHLTPGIRELVSRLQERNVQVFLISGGFRSIVEHVASKLNIPATNVFANRLKFYFNGEYAGFDETQPTAESGGKGKVIKLLKEKFHFKKIIMIGDGATDMEACPPADAFIGFGGNVIRQQVKDNAKWYITDFVELLGELEE
partner: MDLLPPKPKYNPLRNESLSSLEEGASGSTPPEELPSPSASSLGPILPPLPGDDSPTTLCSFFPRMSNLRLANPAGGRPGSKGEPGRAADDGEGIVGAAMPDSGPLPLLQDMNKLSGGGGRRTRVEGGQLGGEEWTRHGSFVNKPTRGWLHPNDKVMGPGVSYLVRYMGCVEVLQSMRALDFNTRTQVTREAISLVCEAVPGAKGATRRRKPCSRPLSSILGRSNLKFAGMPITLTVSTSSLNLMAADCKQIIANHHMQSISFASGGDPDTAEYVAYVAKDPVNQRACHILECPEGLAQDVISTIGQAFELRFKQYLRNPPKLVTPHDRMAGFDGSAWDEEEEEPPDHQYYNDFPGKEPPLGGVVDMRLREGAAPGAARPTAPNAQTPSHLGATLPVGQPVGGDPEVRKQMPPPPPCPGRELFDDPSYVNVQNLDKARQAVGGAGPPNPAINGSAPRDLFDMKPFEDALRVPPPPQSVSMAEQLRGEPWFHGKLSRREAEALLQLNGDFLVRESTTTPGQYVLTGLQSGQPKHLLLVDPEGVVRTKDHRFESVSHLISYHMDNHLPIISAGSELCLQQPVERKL
B2: Phenazine biosynthesis-like domain-containing protein (Homo sapiens), P30039 (parent)
chain: MKLPIFIADAFTARAFRGNPAAVCLLENELDEDMHQKIAREMNLSETAFIRKLHPTDNFAQSSCFGLRWFTPASEVPLCGHATLASAAVLFHKIKNMNSTLTFVTLSGELRARRAEDGIVLDLPLYPAHPQDFHEVEDLIKTAIGNTLVQDICYSPDTQKLLVRLSDVYNRSFLENLKVNTENLLQVENTGKVKGLILTLKGEPGGQTQAFDFYSRYFAPWVGVAEDPVTGSAHAVLSSYWSQHLGKKEMHAFQCSHRGGELGISLRPDGRVDIRGGAAVVLEGTLTA
partner: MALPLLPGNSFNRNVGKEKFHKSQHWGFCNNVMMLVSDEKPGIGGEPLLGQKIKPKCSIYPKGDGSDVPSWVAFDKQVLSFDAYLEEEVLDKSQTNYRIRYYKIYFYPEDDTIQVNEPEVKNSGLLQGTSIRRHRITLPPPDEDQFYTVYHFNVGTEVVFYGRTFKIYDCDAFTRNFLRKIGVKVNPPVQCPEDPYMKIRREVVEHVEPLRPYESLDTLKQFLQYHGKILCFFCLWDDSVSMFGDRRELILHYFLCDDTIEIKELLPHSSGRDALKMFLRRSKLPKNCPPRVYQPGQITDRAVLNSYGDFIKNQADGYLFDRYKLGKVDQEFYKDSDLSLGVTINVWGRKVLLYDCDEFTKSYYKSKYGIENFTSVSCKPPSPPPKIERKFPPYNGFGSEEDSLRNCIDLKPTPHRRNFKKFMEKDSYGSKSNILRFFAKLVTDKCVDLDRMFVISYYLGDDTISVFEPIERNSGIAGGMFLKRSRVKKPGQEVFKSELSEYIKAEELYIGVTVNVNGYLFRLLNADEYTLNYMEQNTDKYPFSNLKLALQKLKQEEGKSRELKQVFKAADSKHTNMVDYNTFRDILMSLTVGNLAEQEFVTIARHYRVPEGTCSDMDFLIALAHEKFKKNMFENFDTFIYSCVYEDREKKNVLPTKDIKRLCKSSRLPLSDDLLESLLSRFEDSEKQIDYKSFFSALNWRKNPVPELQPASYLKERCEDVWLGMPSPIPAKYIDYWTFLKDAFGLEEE
B3: Tyrosine-protein kinase FRK (Homo sapiens), P42685 (parent)
chain: MSNICQRLWEYLEPYLPCLSTEADKSTVIENPGALCSPQSQRHGHYFVALFDYQARTAEDLSFRAGDKLQVLDTLHEGWWFARHLEKRRDGSSQQLQGYIPSNYVAEDRSLQAEPWFFGAIGRSDAEKQLLYSENKTGSFLIRESESQKGEFSLSVLDGAVVKHYRIKRLDEGGFFLTRRRIFSTLNEFVSHYTKTSDGLCVKLGKPCLKIQVPAPFDLSYKTVDQWEIDRNSIQLLKRLGSGQFGEVWEGLWNNTTPVAVKTLKPGSMDPNDFLREAQIMKNLRHPKLIQLYAVCTLEDPIYIITELMRHGSLQEYLQNDTGSKIHLTQQVDMAAQVASGMAYLESRNYIHRDLAARNVLVGEHNIYKVADFGLARVFKVDNEDIYESRHEIKLPVKWTAPEAIRSNKFSIKSDVWSFGILLYEIITYGKMPYSGMTGAQVIQMLAQNYRLPQPSNCPQQFYNIMLECWNAEPKERPTFETLRWKLEDYFETDSSYSDANNFIR
partner: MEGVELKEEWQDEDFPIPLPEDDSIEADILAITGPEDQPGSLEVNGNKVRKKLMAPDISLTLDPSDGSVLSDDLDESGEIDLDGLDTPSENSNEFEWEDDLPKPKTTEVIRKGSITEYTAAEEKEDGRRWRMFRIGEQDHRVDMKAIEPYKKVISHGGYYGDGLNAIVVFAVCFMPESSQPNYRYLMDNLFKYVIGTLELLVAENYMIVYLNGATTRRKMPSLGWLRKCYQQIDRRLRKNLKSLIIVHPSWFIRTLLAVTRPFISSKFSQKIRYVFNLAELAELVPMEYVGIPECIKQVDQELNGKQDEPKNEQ
B4: Cyclin-D1-binding protein 1 (Homo sapiens), O95273 (parent)
chain: MASATAPAAAVPTLASPLEQLRHLAEELRLLLPRVRVGEAQETTEEFNREMFWRRLNEAAVTVSREATTLTIVFSQLPLPSPQETQKFCEQVHAAIKAFIAVYYLLPKDQGITLRKLVRGATLDIVDGMAQLMEVLSVTPTQSPENNDLISYNSVWVACQQMPQIPRDNKAAALLMLTKNVDFVKDAHEEMEQAVEECDPYSGLLNDTEENNSDNHNHEDDVLGFPSNQDLYWSEDDQELIIPCLALVRASKACLKKIRMLVAENGKKDQVAQLDDIVDISDEISPSVDDLALSIYPPMCHLTVRINSAKLVSVLKKALEITKASHVTPQPEDSWIPLLINAIDHCMNRIKELTQSELEL
partner: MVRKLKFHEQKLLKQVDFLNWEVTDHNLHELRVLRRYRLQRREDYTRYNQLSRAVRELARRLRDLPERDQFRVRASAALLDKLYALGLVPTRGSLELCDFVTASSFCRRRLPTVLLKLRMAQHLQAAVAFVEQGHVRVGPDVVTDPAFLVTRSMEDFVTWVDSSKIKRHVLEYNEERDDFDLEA
B5: Protein sprouty homolog 1 (Homo sapiens), O43609 (parent)
chain: MDPQNQHGSGSSLVVIQQPSLDSRQRLDYEREIQPTAILSLDQIKAIRGSNEYTEGPSVVKRPAPRTAPRQEKHERTHEIIPINVNNNYEHRHTSHLGHAVLPSNARGPILSRSTSTGSAASSGSNSSASSEQGLLGRSPPTRPVPGHRSERAIRTQPKQLIVDDLKGSLKEDLTQHKFICEQCGKCKCGECTAPRTLPSCLACNRQCLCSAESMVEYGTCMCLVKGIFYHCSNDDEGDSYSDNPCSCSQSHCCSRYLCMGAMSLFLPCLLCYPPAKGCLKLCRRCYDWIHRPGCRCKNSNTVYCKLESCPSRGQGKPS

Variants of: B1
Conditions: with shc1_human SHC1, P29353

Row | effect of a mutation on the interaction | Variant
1 | with no effect | T149M
2 | with no effect | T152I

Variants of: B2
Conditions: with efhc2_human EFHC2, Q5JST6

Row | effect of a mutation on the interaction | Variant
3 | disrupting interaction strength | A235T
4 | disrupting interaction strength | H257R
5 | disrupting interaction strength | Y154C

Variants of: B3
Conditions: with bnip2_human BNIP2, Q12982

Row | effect of a mutation on the interaction | Variant
6 | disrupting interaction strength | G122R

Variants of: B4
Conditions: with imp3_human IMP3, Q9NV31

Row | effect of a mutation on the interaction | Variant
7 | disrupting interaction strength | I277T

Variants of: B5
Conditions: with nt2na_human NOTCH2NLA

Row | effect of a mutation on the interaction | Variant
8 | with no effect | A37T

Variants of: B5
Conditions: with otx1_human OTX1, P32242
otx1_human OTX1, P32242, sequence (P32242 whole entry): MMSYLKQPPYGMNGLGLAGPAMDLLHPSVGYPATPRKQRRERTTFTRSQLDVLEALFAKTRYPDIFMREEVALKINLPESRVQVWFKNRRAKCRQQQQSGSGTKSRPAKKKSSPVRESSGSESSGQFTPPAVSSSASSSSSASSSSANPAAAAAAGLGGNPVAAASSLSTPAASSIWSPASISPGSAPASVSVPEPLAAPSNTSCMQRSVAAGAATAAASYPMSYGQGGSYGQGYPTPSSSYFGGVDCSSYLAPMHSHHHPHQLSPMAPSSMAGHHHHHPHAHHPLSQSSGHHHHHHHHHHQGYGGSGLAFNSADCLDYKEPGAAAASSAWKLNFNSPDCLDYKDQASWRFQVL

Row | effect of a mutation on the interaction | Variant
9 | with no effect | A37T

Variants of: B5
Conditions: with meox2_human MEOX2, P50222
meox2_human MEOX2, P50222, sequence (P50222 whole entry): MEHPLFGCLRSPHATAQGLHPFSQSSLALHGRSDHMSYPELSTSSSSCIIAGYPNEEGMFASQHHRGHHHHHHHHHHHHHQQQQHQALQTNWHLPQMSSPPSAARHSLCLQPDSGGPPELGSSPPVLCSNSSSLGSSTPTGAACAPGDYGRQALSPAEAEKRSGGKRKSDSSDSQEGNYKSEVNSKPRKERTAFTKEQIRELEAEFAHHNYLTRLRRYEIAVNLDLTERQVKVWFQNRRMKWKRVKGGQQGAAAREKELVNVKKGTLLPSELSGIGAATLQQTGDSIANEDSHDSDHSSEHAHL

Row | effect of a mutation on the interaction | Variant
10 | with no effect | A37T

Variants of: B5
Conditions: with kr101_human KRTAP10-1, P60331
kr101_human KRTAP10-1, P60331, sequence (P60331 whole entry): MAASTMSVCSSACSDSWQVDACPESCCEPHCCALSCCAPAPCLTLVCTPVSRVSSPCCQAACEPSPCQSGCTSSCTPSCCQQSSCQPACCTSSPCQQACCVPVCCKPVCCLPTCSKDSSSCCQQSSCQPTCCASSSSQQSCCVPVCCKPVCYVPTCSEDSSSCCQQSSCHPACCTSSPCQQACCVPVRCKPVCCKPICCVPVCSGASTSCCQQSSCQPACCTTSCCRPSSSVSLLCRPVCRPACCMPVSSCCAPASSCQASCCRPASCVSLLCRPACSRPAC

Row | effect of a mutation on the interaction | Variant
11 | with no effect | A37T
